According to patent US20130078263A1:

Molecular target: HLA-DR on human peripheral blood mononuclear cells (human)
Assay: cell-based or functional assay

B1: IMMU-114 (antibody, from a related filing, IgG4, V domains shown)
VH: QVQLQQSGSELKKPGASVKVSCKASGFTFTNYGMNWVKQAPGQGLKWMGWINTYTREPTYADDFKGRFAFSLDTSVSTAYLQISSLKADDTAVYFCARDITAVVPTGFDYWGQGSLVTVSS
VL: DIQLTQSPSSLSASVGDRVTITCRASENIYSNLAWYRQKPGKAPKLLVFAASNLADGVPSRFSGSGSGTDYTFTISSLQPEDIATYYCQHFWTTPWAFGGGTKLQIKR
frequency of CD3+ class II-DR+ cells, IMMU-114-treated MLR, representative result: 4%
frequency of CD3+ class II-DR+ cells, IMMU-114-treated resting PBMCs, representative result: 0.5%
frequency of CD11c+ class II-DR+ cells, IMMU-114-treated MLR, representative result: 2.3%
frequency of CD11c+ class II-DR+ cells, IMMU-114-treated resting PBMCs, representative result: 0.4%
frequency of CD14+ class II-DR+ cells, IMMU-114-treated MLR, representative result: 2.2%
frequency of CD14+ class II-DR+ cells, IMMU-114-treated resting PBMCs, representative result: 0.5%
reduction of live mDC1 in human PBMCs after 3 days with 5 µg/ml antibody (flow cytometry): 59.2%
reduction of live mDC2 in human PBMCs after 3 days with 5 µg/ml antibody (flow cytometry): 85%
reduction of pDCs in human PBMCs (flow cytometry): 50%
